Measured values as given in PMC3174212, “A Negative Feedback Loop That Limits the Ectopic Activation of a Cell Type–Specific Sporulation Sigma Factor of Bacillus subtilis” (PLoS Genetics, 2011).
Where a chain is given by its changes, count along the chain named. Blank lines part the entries; values can stand above or below the binder they belong to.

Columns and labels:
[1] = target: GST-σ^GN45E (Bacillus subtilis) (UniProt P19940); assay: pull-down; GST or GST-σ^G fusions on glutathione Sepharose beads; 100 nM purified CsfB-Strep II tag; 30 min at room temperature; washed three times in 200 mM NaCl, 10 mM Tris-HCl pH 8.0, 10% glycerol; immunoblot with anti-Strep II tag; densitometry, average of three experiments
[2] = target: T1, GST-σ^G (Bacillus subtilis, UniProt P19940 1-260); assay: as above; conditions: both partners purified
T1 construct: RNA polymerase sigma-G factor of Bacillus subtilis; coding region of sigG amplified with primers sigG2016D and sigG2964R from pMS45 and cloned into pGex4T-3; also called GST-σ^Gwt; GST-σ^G fusion protein (wt); not shown: GST, N-terminal, kept
T1 sequence (looked up): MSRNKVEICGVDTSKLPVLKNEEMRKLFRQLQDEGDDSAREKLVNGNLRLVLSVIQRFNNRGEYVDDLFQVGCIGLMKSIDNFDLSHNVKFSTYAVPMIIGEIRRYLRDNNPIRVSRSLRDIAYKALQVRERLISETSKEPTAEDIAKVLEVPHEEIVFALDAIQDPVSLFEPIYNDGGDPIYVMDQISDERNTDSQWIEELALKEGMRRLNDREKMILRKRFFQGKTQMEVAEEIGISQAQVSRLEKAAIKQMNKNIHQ

[3] = target: T2, GST-σ^GN45A (Bacillus subtilis, UniProt P19940 1-260, N45A); assay: as above; conditions: both partners purified
T2 construct: RNA polymerase sigma-G factor of Bacillus subtilis; coding region of sigGN45A amplified from pJS4 and cloned into pGex4T-3; not shown: GST, N-terminal, kept
T2 sequence (looked up): T1 sequence (looked up) with N45A

[4] = target: GST-σ^GN45E (Bacillus subtilis) (UniProt P19940); assay: pull-down; GST or GST-σ^G fusions on glutathione Sepharose beads; soluble extract of B. subtilis AH6608 (CsfB-GFP) 2 h after the onset of sporulation; 30 min at room temperature; washed three times in 200 mM NaCl, 10 mM Tris-HCl pH 8.0, 10% glycerol; immunoblot with anti-GFP and anti-SpoIIAB; densitometry, average of three experiments
[5] = target: T2, GST-σ^GN45A; assay: as above; conditions: one partner purified

- efficiency of the pull-down relative to the wild type (× of the wild type) [1]: 0.2
- binding result [2]: binds
- efficiency of the pull-down relative to the wild type [3]: ~0.6 × the efficiency of the wild type
B1: CsfB-Strep II tag (natural protein, Bacillus subtilis, UniProt P37534 1-64, looked up)
chain: MDETVKLNHTCVICDQEKNRGIHLYTKFICLDCERKVISTSTSDPDYAFYVKKLKSIHTPPLYS
notes: anti-sigma-G factor CsfB (Gin) of Bacillus subtilis; coding region of csfB amplified with primers csfB191D and csfBstrepR (which carries the Strep II tag) and cloned between NcoI and BamHI of pET16b; also called CsfB-Strep II-tagged protein; purified CsfB; source: E. coli BL21(DE3) grown in LB, purified (Strep-Tactin Sepharose); not shown: Strep II tag, C-terminal, kept

- efficiency of the pull-down relative to the wild type (× of the wild type) [4]: 0.4
- efficiency of the pull-down relative to the wild type [5]: 0.7 × of the wild type
B2: CsfB-GFP fusion (natural protein, Bacillus subtilis, UniProt P37534 1-64, looked up)
chain: B1 chain
notes: anti-sigma-G factor CsfB (Gin) of Bacillus subtilis, functional fusion to GFP; The construction of the csfB-gfp fusion stands in Text S1; source: B. subtilis AH6608 (csfB::km ΔsigG ΔamyE::csfB-gfp), soluble extract 2 h after the onset of sporulation in DSM
